The source of these data is patent publication US20210206856A1 (PANDION OPERATIONS, published 2021).

In experiment [1] the target is T1, human MAdCAM expressed on cells (human, UniProt Q13477 19-382).
T1 construct: whole, on cells; also called MADCAM1
T1 sequence (looked up): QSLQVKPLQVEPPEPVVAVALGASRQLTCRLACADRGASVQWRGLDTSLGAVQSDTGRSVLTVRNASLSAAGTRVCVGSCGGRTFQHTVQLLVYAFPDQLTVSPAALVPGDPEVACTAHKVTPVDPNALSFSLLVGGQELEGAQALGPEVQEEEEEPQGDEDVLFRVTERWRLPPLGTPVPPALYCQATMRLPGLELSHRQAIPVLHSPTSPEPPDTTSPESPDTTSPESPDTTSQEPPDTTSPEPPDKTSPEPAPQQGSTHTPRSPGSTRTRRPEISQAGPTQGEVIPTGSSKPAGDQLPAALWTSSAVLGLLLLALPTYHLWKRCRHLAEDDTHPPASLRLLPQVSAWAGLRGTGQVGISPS
The experiment is described as follows: cell binding.

Experiment [2] addresses T2, mouse MAdCAM expressed on cells (mouse, UniProt Q61826 22-405).
T2 construct: whole, on cells
T2 sequence (looked up): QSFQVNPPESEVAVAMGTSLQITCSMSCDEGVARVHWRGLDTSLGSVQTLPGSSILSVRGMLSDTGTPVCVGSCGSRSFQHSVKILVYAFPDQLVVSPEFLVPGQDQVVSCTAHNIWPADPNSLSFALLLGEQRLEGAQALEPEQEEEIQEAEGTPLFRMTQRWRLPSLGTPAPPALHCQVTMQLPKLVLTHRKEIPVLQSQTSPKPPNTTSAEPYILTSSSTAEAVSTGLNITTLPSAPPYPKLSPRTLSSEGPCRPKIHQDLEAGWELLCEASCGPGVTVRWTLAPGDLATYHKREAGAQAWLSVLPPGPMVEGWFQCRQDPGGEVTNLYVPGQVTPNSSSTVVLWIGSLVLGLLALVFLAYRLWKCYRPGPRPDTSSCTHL
In words: cell binding.

B1: MAdCAM Antibody Table 1 Clone 65 (scFv)
scFv: QVQLVQSGAEVKKPGASVKVSCKASGYTFTRHWIHWVRQAPGQGLEWMGWINVKTGGAGYAQKFQGRVTMTRDTSTSTVYMELSSLRSEDTAVYYCARESSGWYGTDVWGQGTTVTVSSGGGGSGGGGSGGGGSGGGGSDIQMTQSPSSLSASVGDRATITCRASQSISNYLAWYQQKPGKAPKLLIYAASSLQSGVPSRFSGSGSGTDFTLTISSLQPEDFATYYCQQSNSFPLTFGGGTKVEIK
Consider B1, for which the binding result in experiment [1] and in experiment [2] was “binds” each time.

B2: MAdCAM Antibody Table 1 Clone 54 (scFv)
scFv: EVQLLESGGGLVQPGGSLRLSCAASGFTFGDYAMSWVRQAPGKGLEWVAVVSYDGTNKYYADSVKGRFTISRDNSKNTLYLQMNSLRAEDTAVYYCAKDICSSTSCYFDLWGRGTLVTVSSGGGGSGGGGSGGGGSGGGGSDIQMTQSPSSLSASVGDRVTITCRASQNINNYVNWYQQKPGKAPKLLIYDASNLETGVPSRFSGSGSGTDFTLTISSLQPEDFATYYCQQANSFPPTFGQGTRLEIK
B2: the binding result is “binds” in experiment [1] and “no binding” in experiment [2].

B3: MAdCAM Antibody Table 1 Clone 4 (scFv)
scFv: QVQLVQSGAEVKKPGASVKVSCKASGGTFSSYAISWVRQAPGQGLEWMGSINPSGDTTSYAQKFQGRVTMTRDTSTSTVYMELSSLRSEDTAVYYCAKDKAQWLVGYFDYWGQGTLVTVSSGGGGSGGGGSGGGGSGGGGSDIQMTQSPSSLSASVGDRVTITCQASQDISNSLNWYQQKPGKAPKLLIYAASSLQSGVPSRFSGSGSGTDFTLTISSLQPEDFATYYCQQSYSSVITFGQGTKVEIK
In the case of B3, the binding result in experiment [1] and in experiment [2] was “binds” in each case.

B4: MAdCAM Antibody Table 1 Clone 5 (scFv)
scFv: EVQLLESGGGLVQPGGSLRLSCAASGFTFSSYWMHWVRQAPGKGLEWVSSISPGGSNIDYADSVKGRFTISRDNSKNTLYLQMNSLRAEDTAVYYCAREVQLSHYDYWGQGTLVTVSSGGGGSGGGGSGGGGSGGGGSDIQMTQSPSSLSASVGDRVTITCRASQGISNSLAWYQQKPGKAPKLLIYGASSLQSGVPSRFSGSGSGTDFTLTISSLQPEDFATYYCQQANSFPFTFGQGTKVEIK
Take B4: the binding result in experiment [1] and in experiment [2] was “binds” in each case.

B5: MAdCAM Antibody Table 1 Clone 61 (scFv)
scFv: EVQLLESGGGLVQPGGSLRLSCAASEFTFSNAWMSWVRQAPGKGLEWVASISSTSAYIDYADSVKGRFTISRDNSKNTLYLQMNSLRAEDTAVYYCAREVVGATTFDYWGQGTLVTVSSGGGGSGGGGSGGGGSGGGGSDIQMTQSPSSLSASVGDRVTITCRASQSISTWLAWYQQKPGKAPKLLIYAASSLQSGVPSRFSGSGSGTDFTLTISSLQPEDFATYYCQQANAFPPTFGQGTRLEIK
On to B5, for which the binding result in experiment [1] and in experiment [2] was “binds” throughout.

B6: MAdCAM Antibody Table 1 Clone 66 (scFv)
scFv: EVQLLESGGGLVQPGGSLRLSCAASGFTFSSYWMHWVRQAPGKGLEWVAAISYDGKYKDYEDSVKGRFTISRDNSKNTLYLQMNSLRAEDTAVYYCARENKQWLASFDYWGQGTLVTVSSGGGGSGGGGSGGGGSGGGGSDIQMTQSPSSLSASVGDRVTITCQASQDISNFVNWYQQKPGKAPKLLIYAANLRSGVPSRFSGSGSGTDFTLTISSLQPEDFATYYCQQANSFPVTFGPGTKVDIK
As for B6, the binding result in experiment [1] and in experiment [2] was “binds” throughout.

B7: MAdCAM Antibody Table 1 Clone 55 (scFv)
scFv: QVQLVQSGAEVKKPGASVKVSCKASGYTFTSYYMHWVRQAPGQGLEWMGIIDPSGGSTSYAQKFQGRVTMTRDTSTSTVYMELSSLRSEDTAVYYCAREEWSSGGVGYFDYWGQGTLVTVSSGGGGSGGGGSGGGGSGGGGSDIQMTQSPSSLSASVGDRVTITCRASQGISSYLAWYQQKPGKAPKLLIYATSSLQTGVPSRFSGSGSGTDFTLTISSLQPEDFATYYCQQTYSIPITFGQGTRLEIK
In the case of B7, the binding result in experiment [1] is “binds”; in experiment [2] it was “no binding”.

B8: MAdCAM Antibody Table 1 Clone 57 (scFv)
scFv: QVQLVQSGAEVKKPGASVKVSCKASGYTFTSYYMHWVRQAPGQGLEWMGIINPSGGSTSYAQKFQGRVTMTRDTSTSTVYMELSSLRSEDTAVYYCARDSVAGTGGRYYGMDVWGQGTLVTVSSGGGGSGGGGSGGGGSGGGGSDIQMTQSPSSLSASVGDRVTITCRASQGISNYFAWYQQKPGKAPKLLIYAASSLQGGVPSRFSGSGSGTDFTLTISSLQPEDFATYYCQQSYSLPYTFGQGTKLEIK
B8: the values for the binding result in experiment [1] and in experiment [2] were “binds” and “no binding”, respectively.

B9: MAdCAM Antibody Table 1 Clone 63 (scFv)
scFv: EVQLLESGGGLVKPGGSLRLSCAASGFTFDDYAMHWVRQAPGKGLEWVASITSSSAFIDYAASVKGRFTISRDDSKNTLYLQMNSLKTEDTAVYYCARERVDWNSYFDLWGRGTLVTVSSGGGGSGGGGSGGGGSGGGGSEIVMTQSPATLSVSPGERATLSCRASQGISNSYLAWYQQKPGQAPRLLIYGASTRATGIPARFSGSGSGTEFTLTISSLQSEDFAVYYCQQYYTYPPTFGPGTKVDIK
For B9, the binding result in experiment [1] and in experiment [2] was “binds” in each case.

B10: MAdCAM Antibody Table 1 Clone 7 (scFv)
scFv: QVQLVQSGAEVKKPGASVKVSCKASGYTFTGYHIHWVRQAPGQGLEWMGIINPSGGSTIYAQKFQGRVTMTRDTSTSTVYMELSSLRSEDTAVYYCAKDWSSWYLGPFDYWGQGTLVTVSSGGGGSGGGGSGGGGSGGGGSDIQMTQSPSSLSASVGDRVTITCRASQNISSSLNWYQQKPGKAPKLLIYAASSLQSGVPSRFSGSGSGTDFTLTISSLQPEDFATYYCQQSYTTPYTFGQGTKVEIK
As for B10, the binding result in experiment [1] and in experiment [2] was “binds” throughout.

B11: MAdCAM Antibody Table 1 Clone 59 (scFv)
scFv: EVQLLESGGGLVQPGGSLRLSCAASGFTFSDFWMHWVRQAPGKGLEWISYISGDSGYTNYADSVKGRFTISRDNSKNTLYLQMNSLRAEDTAVYYCARDRPYYYYMDVWGKGTTVTVSSGGGGSGGGGSGGGGSGGGGSDIQMTQSPSSLSASVGDRVTITCRASQSVSRSLAWYQQKPGKAPKLLIYAASSLQSGVPSRFSGSGSGTDFTLTISSLQPEDFATYYCQQYKSYPVTFGQGTKVEIK
With B11, the binding result in experiment [1] and in experiment [2] was “binds” throughout.

B12: MAdCAM Antibody Table 1 Clone 58 (scFv)
scFv: QVQLVQSGAEVKKPGASVKVSCKASGYTFTGYYMHWVRQAPGQGLEWMGIINPSGGNTKYAQKFQGRVTMTRDTSTSTVYMELSSLRSEDTAVYYCTTADYYYYMDVWGKGTTVTVSSGGGGSGGGGSGGGGSGGGGSDIQMTQSPSSLSASVGDRVTITCRASQGISNYLAWYQQKPGKAPKLLIYAASSLQSGVPSRFSGSGSGTDFTLTISSLQPEDFATYYCQQYYSNADFGQGTKVEIK
B12: the binding result in experiment [1] is given as “binds”; in experiment [2], “no binding”.

B13: MAdCAM Antibody Table 1 Clone 64 (scFv)
scFv: EVQLLESGGGLVKPGGSLRLSCAASGFAFSSHWMHWVRQAPGKGLEWVAGTSGSGESRDYADFVKGRFTISRDDSKNTLYLQMNSLKTEDTAVYYCARETYYYYYMDVWGKGTTVTVSSGGGGSGGGGSGGGGSGGGGSDIQMTQSPSSLSASVGDRVTITCRASQGISNYLAWYQQKPGKAPKLLIYDAANLEGGVPSRFSGSGSGTDFTLTISSLQPEDFATYYCQQSDIFPPTFGQGTKVEIK
Turning to B13, the binding result in experiment [1] and in experiment [2] was “binds” each time.

B14: MAdCAM Antibody Table 1 Clone 2 (scFv)
scFv: QVQLVQSGAEVKKPGASVKVSCKASGYPFIGYYLHWVRQAPGQGLEWMGIINPSGGSTSYAQKFQGRVTMTRDTSTSTVYMELSSLRSEDTAVYYCAREGRLSYGMDAWGQGTLVTVSSGGGGSGGGGSGGGGSGGGGSDIQMTQSPSSLSASVGDRVTITCRASQSISSYLAWYQQKPGKAPKLLIYGASTLESGVPSRFSGSGSGTDFTLTISSLQPEDFATYYCQQTWGPPFTFGQGTKLEIK
For the molecule B14, the binding result in experiment [1] and in experiment [2] was “binds” in each case.

B15: MAdCAM Antibody Table 1 Clone 3 (scFv)
scFv: QVQLVQSGAEVKKPGASVKVSCKASGYPFIGQYLHWVRQAPGQGLEWMGIINPSGGSTSYAQKFQGRVTMTRDTSTSTVYMELSSLRSEDTAVYYCAREGRLSYGMDAWGQGTLVTVSSGGGGSGGGGSGGGGSGGGGSDIQMTQSPSSLSASVGDRVTITCRASQSISSYLAWYQQKPGKAPKLLIYGASTLESGVPSRFSGSGSGTDFTLTISSLQPEDFATYYCQQTWGPPFTFGQGTKLEIK
B15: the binding result in experiment [1] and in experiment [2] was “binds” in each case.

B16: MAdCAM Antibody Table 1 Clone 60 (scFv)
scFv: EVQLLESGGGLVQPGGSLRLSCAASGFTFDDYTMHWVRQAPGKGLEWVSDISGSGGSTYYADSVKGRFTISRDNSKNTLYLQMNSLRAEDTAVYYCAKDVVVAGTPLHFDYWGQGTLVTVSSGGGGSGGGGSGGGGSGGGGSDIQMTQSPSSLSASVGDRVTITCQASQDISNYLNWYQQKPGKAPKLLIYAASYLQSGVPSRFSGSGSGTDFTLTISSLQPEDFATYYCQQAHNYPITFGQGTRLEIK
With B16, the binding result in experiment [1] and in experiment [2] was “binds” each time.
